In the test the target is T1, RDM15 Tudor domain (residues 598-662), wild type (Arabidopsis thaliana).
T1 chain: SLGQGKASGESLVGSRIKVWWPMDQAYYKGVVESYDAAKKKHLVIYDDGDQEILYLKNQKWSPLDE
Kind of test: ITC.

Ends that are not written are not given here.

B1: H3(1-15) K4me1 peptide (peptide)
chain: ARTK(Me)QTARKSTGGKA
On to B1, for which binding was put at a Kd of 1470 nM.

The record behind these values is article PMC8184781 (2021).
